± gives the uncertainty stated by the source.
B1: SH3 and PX domain-containing protein 2B, residues 155 to 209; numbered along this chain, A1X283 (parent)
chain: EQYVVVANYQKQESSEISLSVGQVVDIIEKNESGWWFVSTAEEQGWVPATCLEGQ

Variants of: B1
Experiment: abundance fitness (aPCA) (normalised: wild type 0, dead -1); higher = more abundant; growth selection in yeast, the domain comes from the species named
Details: Homo sapiens

With EQYVVVANYQTQESSEISLSVGQVVDIIEKNESGWWFVSTAEEQGWVPATCLEGQ [K11T] as the variant, how does the abundance fitness read?
The abundance fitness was -0.357 ± 0.14.

With EQYVVVANYQWQESSEISLSVGQVVDIIEKNESGWWFVSTAEEQGWVPATCLEGQ [K11W] as the variant, how does the abundance fitness read?
Its abundance fitness is -0.496 ± 0.12.

With EQYVVVANYQYQESSEISLSVGQVVDIIEKNESGWWFVSTAEEQGWVPATCLEGQ [K11Y] as the variant, how does the abundance fitness read?
The abundance fitness was -0.465 ± 0.14.

For EQYVVVANYQKCESSEISLSVGQVVDIIEKNESGWWFVSTAEEQGWVPATCLEGQ [Q12C], which abundance fitness is on record?
The abundance fitness was -0.228 ± 0.1.

For EQYVVVANYQKDESSEISLSVGQVVDIIEKNESGWWFVSTAEEQGWVPATCLEGQ [Q12D], which abundance fitness is on record?
The abundance fitness was -0.241 ± 0.15.

For EQYVVVANYQKEESSEISLSVGQVVDIIEKNESGWWFVSTAEEQGWVPATCLEGQ [Q12E], which abundance fitness is on record?
The abundance fitness was -0.195 ± 0.14.

With EQYVVVANYQKFESSEISLSVGQVVDIIEKNESGWWFVSTAEEQGWVPATCLEGQ [Q12F] as the variant, how does the abundance fitness read?
Its abundance fitness is 0.001 ± 0.16.

Which abundance fitness does the source give for EQYVVVANYQKGESSEISLSVGQVVDIIEKNESGWWFVSTAEEQGWVPATCLEGQ [Q12G] here?
The abundance fitness was -0.14 ± 0.074.

For EQYVVVANYQKHESSEISLSVGQVVDIIEKNESGWWFVSTAEEQGWVPATCLEGQ [Q12H], which abundance fitness is on record?
The abundance fitness was -0.114 ± 0.19.

Which abundance fitness does the source give for EQYVVVANYQKIESSEISLSVGQVVDIIEKNESGWWFVSTAEEQGWVPATCLEGQ [Q12I] here?
Its abundance fitness is -0.19 ± 0.14.

For EQYVVVANYQKKESSEISLSVGQVVDIIEKNESGWWFVSTAEEQGWVPATCLEGQ [Q12K], which abundance fitness is on record?
The abundance fitness was 0.013 ± 0.094.

With EQYVVVANYQKMESSEISLSVGQVVDIIEKNESGWWFVSTAEEQGWVPATCLEGQ [Q12M] as the variant, how does the abundance fitness read?
Its abundance fitness is -0.182 ± 0.14.

With EQYVVVANYQKNESSEISLSVGQVVDIIEKNESGWWFVSTAEEQGWVPATCLEGQ [Q12N] as the variant, how does the abundance fitness read?
Its abundance fitness is -0.183 ± 0.14.

Which abundance fitness does the source give for EQYVVVANYQKPESSEISLSVGQVVDIIEKNESGWWFVSTAEEQGWVPATCLEGQ [Q12P] here?
Its abundance fitness is -0.276 ± 0.087.

With EQYVVVANYQKRESSEISLSVGQVVDIIEKNESGWWFVSTAEEQGWVPATCLEGQ [Q12R] as the variant, how does the abundance fitness read?
The abundance fitness was -0.066 ± 0.068.

With EQYVVVANYQKSESSEISLSVGQVVDIIEKNESGWWFVSTAEEQGWVPATCLEGQ [Q12S] as the variant, how does the abundance fitness read?
Its abundance fitness is -0.038 ± 0.073.

For EQYVVVANYQKVESSEISLSVGQVVDIIEKNESGWWFVSTAEEQGWVPATCLEGQ [Q12V], which abundance fitness is on record?
Its abundance fitness is 0.02 ± 0.08.

For EQYVVVANYQKYESSEISLSVGQVVDIIEKNESGWWFVSTAEEQGWVPATCLEGQ [Q12Y], which abundance fitness is on record?
The abundance fitness was -0.313 ± 0.3.

For EQYVVVANYQKQASSEISLSVGQVVDIIEKNESGWWFVSTAEEQGWVPATCLEGQ [E13A], which abundance fitness is on record?
The abundance fitness was -0.359 ± 0.1.

With EQYVVVANYQKQCSSEISLSVGQVVDIIEKNESGWWFVSTAEEQGWVPATCLEGQ [E13C] as the variant, how does the abundance fitness read?
The abundance fitness was -0.19 ± 0.1.

With EQYVVVANYQKQDSSEISLSVGQVVDIIEKNESGWWFVSTAEEQGWVPATCLEGQ [E13D] as the variant, how does the abundance fitness read?
Its abundance fitness is -0.111 ± 0.14.

With EQYVVVANYQKQFSSEISLSVGQVVDIIEKNESGWWFVSTAEEQGWVPATCLEGQ [E13F] as the variant, how does the abundance fitness read?
The abundance fitness was -0.229 ± 0.13.

With EQYVVVANYQKQGSSEISLSVGQVVDIIEKNESGWWFVSTAEEQGWVPATCLEGQ [E13G] as the variant, how does the abundance fitness read?
Its abundance fitness is -0.074 ± 0.065.

Which abundance fitness does the source give for EQYVVVANYQKQHSSEISLSVGQVVDIIEKNESGWWFVSTAEEQGWVPATCLEGQ [E13H] here?
Its abundance fitness is -0.154 ± 0.11.

With EQYVVVANYQKQISSEISLSVGQVVDIIEKNESGWWFVSTAEEQGWVPATCLEGQ [E13I] as the variant, how does the abundance fitness read?
The abundance fitness was -0.037 ± 0.12.

For EQYVVVANYQKQKSSEISLSVGQVVDIIEKNESGWWFVSTAEEQGWVPATCLEGQ [E13K], which abundance fitness is on record?
The abundance fitness was -0.015 ± 0.15.

With EQYVVVANYQKQLSSEISLSVGQVVDIIEKNESGWWFVSTAEEQGWVPATCLEGQ [E13L] as the variant, how does the abundance fitness read?
The abundance fitness was -0.178 ± 0.071.

Which abundance fitness does the source give for EQYVVVANYQKQMSSEISLSVGQVVDIIEKNESGWWFVSTAEEQGWVPATCLEGQ [E13M] here?
Its abundance fitness is -0.025 ± 0.12.

For EQYVVVANYQKQNSSEISLSVGQVVDIIEKNESGWWFVSTAEEQGWVPATCLEGQ [E13N], which abundance fitness is on record?
The abundance fitness was -0.046 ± 0.16.

With EQYVVVANYQKQPSSEISLSVGQVVDIIEKNESGWWFVSTAEEQGWVPATCLEGQ [E13P] as the variant, how does the abundance fitness read?
Its abundance fitness is -0.598 ± 0.12.

For EQYVVVANYQKQRSSEISLSVGQVVDIIEKNESGWWFVSTAEEQGWVPATCLEGQ [E13R], which abundance fitness is on record?
The abundance fitness was -0.182 ± 0.081.

With EQYVVVANYQKQSSSEISLSVGQVVDIIEKNESGWWFVSTAEEQGWVPATCLEGQ [E13S] as the variant, how does the abundance fitness read?
Its abundance fitness is -0.158 ± 0.078.

With EQYVVVANYQKQTSSEISLSVGQVVDIIEKNESGWWFVSTAEEQGWVPATCLEGQ [E13T] as the variant, how does the abundance fitness read?
The abundance fitness was -0.104 ± 0.1.

With EQYVVVANYQKQVSSEISLSVGQVVDIIEKNESGWWFVSTAEEQGWVPATCLEGQ [E13V] as the variant, how does the abundance fitness read?
Its abundance fitness is -0.065 ± 0.071.

Which abundance fitness does the source give for EQYVVVANYQKQWSSEISLSVGQVVDIIEKNESGWWFVSTAEEQGWVPATCLEGQ [E13W] here?
Its abundance fitness is -0.467 ± 0.17.

With EQYVVVANYQKQYSSEISLSVGQVVDIIEKNESGWWFVSTAEEQGWVPATCLEGQ [E13Y] as the variant, how does the abundance fitness read?
The abundance fitness was -0.248 ± 0.11.

With EQYVVVANYQKQEASEISLSVGQVVDIIEKNESGWWFVSTAEEQGWVPATCLEGQ [S14A] as the variant, how does the abundance fitness read?
Its abundance fitness is -0.13 ± 0.11.

Which abundance fitness does the source give for EQYVVVANYQKQECSEISLSVGQVVDIIEKNESGWWFVSTAEEQGWVPATCLEGQ [S14C] here?
Its abundance fitness is -0.018 ± 0.1.

For EQYVVVANYQKQEFSEISLSVGQVVDIIEKNESGWWFVSTAEEQGWVPATCLEGQ [S14F], which abundance fitness is on record?
The abundance fitness was -0.458 ± 0.15.

For EQYVVVANYQKQEGSEISLSVGQVVDIIEKNESGWWFVSTAEEQGWVPATCLEGQ [S14G], which abundance fitness is on record?
Its abundance fitness is -0.071 ± 0.063.

Which abundance fitness does the source give for EQYVVVANYQKQEHSEISLSVGQVVDIIEKNESGWWFVSTAEEQGWVPATCLEGQ [S14H] here?
The abundance fitness was -0.125 ± 0.14.

For EQYVVVANYQKQEISEISLSVGQVVDIIEKNESGWWFVSTAEEQGWVPATCLEGQ [S14I], which abundance fitness is on record?
The abundance fitness was 0.014 ± 0.2.

With EQYVVVANYQKQEKSEISLSVGQVVDIIEKNESGWWFVSTAEEQGWVPATCLEGQ [S14K] as the variant, how does the abundance fitness read?
The abundance fitness was 0.026 ± 0.11.

With EQYVVVANYQKQELSEISLSVGQVVDIIEKNESGWWFVSTAEEQGWVPATCLEGQ [S14L] as the variant, how does the abundance fitness read?
Its abundance fitness is 0.027 ± 0.1.

With EQYVVVANYQKQEMSEISLSVGQVVDIIEKNESGWWFVSTAEEQGWVPATCLEGQ [S14M] as the variant, how does the abundance fitness read?
The abundance fitness was -0.05 ± 0.13.

Which abundance fitness does the source give for EQYVVVANYQKQENSEISLSVGQVVDIIEKNESGWWFVSTAEEQGWVPATCLEGQ [S14N] here?
Its abundance fitness is 0.083 ± 0.45.

Which abundance fitness does the source give for EQYVVVANYQKQEPSEISLSVGQVVDIIEKNESGWWFVSTAEEQGWVPATCLEGQ [S14P] here?
Its abundance fitness is -0.005 ± 0.1.

For EQYVVVANYQKQEQSEISLSVGQVVDIIEKNESGWWFVSTAEEQGWVPATCLEGQ [S14Q], which abundance fitness is on record?
The abundance fitness was -0.347 ± 0.2.

From the Human Domainome abundance scans (Beltran et al. 2025)
